± gives the standard deviation of the averaged measurements.
Test system: ATP
Assay: switch fluorescence ratio, 500 uM ATP over buffer (Cy3 cluster intensity, sum of 5 cycles each) (fold (ratio)); higher = stronger signal-on switching upon ATP binding; sequences stand for … in TCGTCGGCAGCGTCAGATGTGTATAAGAGACAGTTTTTTTTTTTTTTTTTTTTTTTTT…TC
Conditions: aptamer strand: ATP DNA aptamer (quencher-CACCTGGGGGAGTATTGCGGAGGAAGG + anchor), 100 nM annealed; ATP concentration: 500 uM
How it was run: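 After annealing to 100 nM quencher-labelled ATP aptamer, Cy3-labelled switching-strand clusters on a modified Illumina MiSeq flow-cell were imaged in selection buffer. A second image followed after 15 min with 500 uM ATP at 22 °C, and five such buffer/ATP cycles were done, each separated by NaOH stripping and re-annealing. The fluorescence ratio, averaged per switch-domain sequence, is summed target-cycle over summed buffer-cycle Cy3 intensity per cluster, with clusters outside 100-1000 RFU excluded.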
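Also: ATP exposure 15 min at 22 °C before imaging.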

Row | Sequence | switch fluorescence ratio
1 | TGTTGTAGGG | 1.02 ± 0.02
2 | GTGGCACTGT | 0.989 ± 0.019
3 | GGGAGGGGAA | 1.1 ± 0.15
4 | TGAGTAAGTA | 0.995 ± 0.048
5 | GCTTGAGTTG | 1.0068 ± 0.0004
6 | CGCTAGACAC | 1.49 ± 0.054
7 | TATGTGGAGT | 0.9924 ± 0.0089
8 | TTAAGATTGG | 0.959 ± 0.015
9 | ATCTTTTTCT | 1.03 ± 0.052
10 | GATCATTGTT | 1.007 ± 0.0088
11 | AGGATGGGGA | 0.99 ± 0.023
12 | GTGTGTTCTT | 1.014 ± 0.008
13 | TTATTTTGTT | 0.982 ± 0.034
14 | TTCGGCGGCA | 1.02 ± 0.036
15 | TGGGCGTTTA | 1.04 ± 0.026
16 | TGGTGATTGT | 1.02 ± 0.017
17 | GGGAAGGGTT | 0.998 ± 0.029
18 | CCAAAAGTGG | 1.04 ± 0.044
19 | GAGGGAAGAT | 0.999 ± 0.014
20 | GTTTTCTGTT | 1.0024 ± 0.00021
21 | CGGAGTACGG | 1.06 ± 0.075
22 | CGGCTGGAGT | 1.001 ± 0.0043
23 | AGGTGGCGTC | 1.03 ± 0.027
24 | CTATTCAGGT | 1.01 ± 0.032
25 | CATGTTTCTA | 0.995 ± 0.02

Row | Sequence | switch fluorescence ratio
26 | CCTGCATTTT | 1.3 ± 0.33
27 | TTTGTCTTC | 0.95 ± 0.015
28 | GCCCGGGGCT | 1.028 ± 0.0057
29 | TCTTAGCATT | 1.04 ± 0.077
30 | TGAATGGAGG | 0.988 ± 0.042
31 | ATTATCATGT | 1 ± 0.074
32 | GTCGACAGCG | 1.02 ± 0.035
33 | GTGGGACATA | 0.999 ± 0.044
34 | AAGATAACCT | 1.87 ± 0.23
35 | GATAGGAGCC | 0.9977 ± 0.002
36 | ATAGGCGAAA | 0.986 ± 0.022
37 | GGGCATCATG | 1.04 ± 0.011
38 | TTCGGCAATG | 1.39 ± 0.38
39 | ACACAGAGAG | 1.02 ± 0.033
40 | CGGCGCATTA | 2.86 ± 0.55
41 | GGGGTTAATG | 0.998 ± 0.028
42 | GCAATGAGGG | 1.14 ± 0.034
43 | AAGGGGTACA | 1.01 ± 0.02
44 | GTGAGGTATC | 1.04 ± 0.032
45 | CCCTAACCCG | 1.18 ± 0.055
46 | GGGGTTTTTC | 0.9786 ± 0.0085
47 | GTTGCAGTCA | 0.949 ± 0.042
48 | TTCAAGTGTT | 0.987 ± 0.029
49 | GCTGACGGGT | 0.976 ± 0.018
50 | TTAGAGGTAA | 1.01 ± 0.019

Row | Sequence | switch fluorescence ratio
51 | TGGTTGGATC | 0.984 ± 0.019
52 | GTTGGGTACT | 0.998 ± 0.037
53 | ACTGGTAACG | 1.02 ± 0.024
54 | TCATGGTATG | 0.997 ± 0.024
55 | GACCGCATTT | 1.68 ± 0.46
56 | GCTACGGTAT | 1.13 ± 0.07
57 | ATTCTGTGGT | 0.97 ± 0.019
58 | TGATTTATTT | 0.9927 ± 0.0048
59 | AATGTTAGAA | 0.99 ± 0.05
60 | TAAATCCAGG | 1.24 ± 0.028
61 | GACTTGGTAG | 0.9884 ± 0.0053
62 | GGATGTCAGG | 1 ± 0.045
63 | CTGTTTAGTG | 0.9822 ± 0.0061
64 | TCCAGCGGGG | 1.01 ± 0.047
65 | TAGGATGTCA | 1.01 ± 0.027
66 | GCGATGGTGT | 1.02 ± 0.008
67 | GCGCATATTG | 1.051 ± 0.0021
68 | CTATTGGGAG | 1.03 ± 0.032
69 | AAGGAAATTA | 1.01 ± 0.058
70 | TTATATTCTG | 0.9893 ± 0.0041
71 | CTTATAAATT | 0.999 ± 0.021
72 | ATGTCTTTTG | 1.03 ± 0.022
73 | TTGTGTTAGG | 0.994 ± 0.031
74 | GGGGGTCCTC | 1.001 ± 0.01
75 | TTTAATAATG | 0.988 ± 0.036

Row | Sequence | switch fluorescence ratio
76 | ATTTCGGTTG | 0.989 ± 0.026
77 | CGAAAGGGGA | 1.03 ± 0.018
78 | TGAAAAAGGT | 0.9993 ± 0.0021
79 | TTCGGAATTA | 0.995 ± 0.0066
80 | TCGGGGTTAT | 1.04 ± 0.083
81 | AAGGGGCATG | 1.001 ± 0.0025
82 | TGGGGTGCGG | 0.975 ± 0.026
83 | GGATGGTTTC | 1.01 ± 0.023
84 | GGTATCTGTT | 0.986 ± 0.016
85 | TAAGGTGCTC | 1.1 ± 0.01
86 | TGAGTAGGGT | 0.992 ± 0.011
87 | AGCTTTGCTA | 0.9582 ± 0.0072
88 | TCGGCTTTGA | 1.01 ± 0.03
89 | AAGGGAGGAA | 1.02 ± 0.012
90 | TGGGGTGCTG | 1.05 ± 0.016
91 | CGATCATGGT | 0.994 ± 0.011
92 | AAGTCGGGGC | 1 ± 0.038
93 | GGAACTTAAG | 0.9794 ± 0.0043
94 | CGGGGGGTCG | 1.04 ± 0.069
95 | GGGGTGGAGC | 1.05 ± 0.014
96 | TGGTGAAACC | 1.013 ± 0.0035
97 | CGATAGAAAG | 1.01 ± 0.024
98 | GGAGGGAGTT | 1.03 ± 0.049
99 | GGGTAAATGG | 1.02 ± 0.034
100 | GGGTTGTTTG | 0.992 ± 0.036

From the supplement of paper PMC10126150
